Measurements published in PMC12341890, “Insights into plastocyanin–cytochrome b6f complex formation: The role of plastocyanin phosphorylation” (Plant Physiology, 2025).

Experiments:
[1] = biological target: cytochrome f (Cytf, PetA), His-tagged, in the isolated cytochrome b6f complex (C. reinhardtii) (UniProt P23577)
[2] = biological target: T1, cytochrome f (Cytf, PetA), His-tagged, in the isolated cytochrome b6f complex (C. reinhardtii, UniProt P23577 32-317); experiment: cross-linking; PC (100 µM) preactivated with 5 mM EDC and 10 mM NHS, pH 6.5 (MOPS), 20 min at room temperature; 5 mM ferricyanide added and cross-linker removed; added to isolated Cytb6f (2.7 µM) pre-reduced with 5 mM ascorbate; HEPES 30 mM pH 7.5, MgCl2, tPCCαM; 45 min at room temperature; read by SDS-PAGE (Coomassie, anti-Cytf blot) and by trypsin digestion with LC-MS/MS (MaxQuant and xiSEARCH); settings: both partners purified
T1 construct: cytochrome f (PetA) of C. reinhardtii, UniProt P23577; numbers count on: the mature protein (Y32 of P23577 = Y1); Stood in every assay as a subunit of the whole isolated Cytb6f complex, not as an isolated protein; Carries heme f; also called Cytb6f (as the subunit cross-linked); source: C. reinhardtii strain expressing His-tagged PetA; Cytb6f complex purified (tPCCαM solubilisation, NiNTA, …)
T1 sequence (P23577 32-317, one chain of several): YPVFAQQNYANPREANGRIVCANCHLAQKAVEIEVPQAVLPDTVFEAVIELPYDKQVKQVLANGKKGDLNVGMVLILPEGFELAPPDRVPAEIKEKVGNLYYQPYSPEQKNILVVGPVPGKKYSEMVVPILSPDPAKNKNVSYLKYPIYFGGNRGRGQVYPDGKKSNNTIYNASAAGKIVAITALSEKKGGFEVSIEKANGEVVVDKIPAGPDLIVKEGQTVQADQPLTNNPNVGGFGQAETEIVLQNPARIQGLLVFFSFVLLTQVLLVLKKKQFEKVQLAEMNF

Sequence of cytochrome f (Cytf, PetA), His-tagged, in the isolated cytochrome b6f complex (C. reinhardtii) (P23577 32-317, one chain of several): as above

half-time of Cytf oxidation in the light (absorbance at 554 nm), isolated Cytb6f and PSI, 1 to 3 µM PC, 5 µM FDX [1] | binding result [2] | Binder
120 ms | – | plastocyanin (PC) S49D, recombinant phosphomimetic variant (natural protein) DATVKLGADSGALEFVPKTLTIKSGETVNFVNNAGFPHNIVFDEDAIPDGVNADAISRDDYLNAPGETYSVKLTAAGEYGYYCEPHQGAGMVGKIIVQ
– | binds | plastocyanin (PC) S49K, recombinant (natural protein, C. reinhardtii, plastocyanin of C. reinhardtii, UniProt P18068, with a point mutation S49K that adds a trypsin site; numbers count on: the mature protein (D48 of P18068 = D1); S49 is S96 in P18068 by the printed offset; Made from the WT Pet17b-PETE plasmid; the methods list codons only for S-to-A, S-to-E and S-to-D; also called mutated S49K PC; source: E. coli, recombinant (as the wild type PC)) DATVKLGADSGALEFVPKTLTIKSGETVNFVNNAGFPHNIVFDEDAIPKGVNADAISRDDYLNAPGETYSVKLTAAGEYGYYCEPHQGAGMVGKIIVQ
